The supplement of paper PMC10567573

B1: BCL2L13 (parent)
chain: YIIQQGGWGTVFSLESEEEEYPGI
B2: TSPAN10 (parent)
chain: EGCGPPLRRWLRANLAASGGYAIA

Variants of: B1
Assay: protein stability index of a GFP-peptide fusion (GPS, HEK-293T) (PSI 1-6); higher = more stable
Conditions: c terminus: a fixed tail appended
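Further: lentivirally expressed fusions sorted by FACS into six bins by GFP to DsRed ratio, PSI derived from sequencing read proportions per bin multiplied by bin number.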

Protein stability index: each site, then its substitutions
G23: E 2.43, F 1.26, V 1.85, R 1.28, K 2.61, M 2.57, I 1.76, W 1.93, A 1.21, N 1.16, P 1.97, T 2.58, Y 2.18, Q 1.84, L 2.01, H 1, D 2.7
S13: P 1.38, E 1.33, L 1.24, H 1.43, T 1.62, Y 1.71, D 2.72, G 1.74, V 2.28, C 1.49, N 3.23, F 2.46
E18: D 1.96, P 1.53, H 1.85, L 1.92, S 2.56, N 2.86, F 2.56, Q 2.13, T 1.99
Q5: M 1.67, E 1.33, G 1.69, W 2.16, R 1.92, T 1.72, N 1.73
L14: K 1.5, W 1.06, V 1.98, I 1.76, E 2.57, H 1, Q 1.78, T 2.2, S 2.23, R 1.87, P 1.87, D 2.21, Y 1.84
S16: H 2.01, M 2.68, N 1.83, C 3.01, G 2.38, D 1.76, V 1.65, K 2.69, Y 2.61, A 1.69, E 1.59, F 2.94, T 2.25, I 4.26
Y21: Q 2.33, N 1.74, H 2.53, M 2.26, D 2.22, S 1.14, R 1.75, E 1.64, G 2.02, I 1.59, T 1.21, L 2.11
G6: K 2.9, W 1.14, T 2.31, V 1.23, P 2.12, E 2.06, D 1.42, R 2.02, S 1.73, F 1.97, N 2.15, H 1.48
P22: R 1.92, S 2.18, K 2.65, V 1.37, D 2.69, H 1.7, I 3.56, Q 1.47, L 2.9, A 2, Y 1.38, E 2.22, M 1.42, N 1.42, T 2.02
F12: K 2.39, Q 1.24, N 1.56, M 2.98, D 2.35, P 1.58, V 1.65, A 2.5, E 2.66, S 2.03, R 1.83, H 1.75, T 2.13, I 1.64, L 1.81
I3: E 2.63, F 2.27, H 2.71, P 2.56, A 1.58, S 2.04
G9: I 3.4, T 3, H 1.42, C 3.36, L 3.44, S 1.68, A 1.62, Q 1.81, E 2.65, R 1.06, K 1.7, D 1.13, P 1.09, V 3.32
Y1: Q 3.18, P 4.31, E 2.86, C 2.47, N 4.12, G 4.05, A 3.38, I 1.6, H 3.19, K 3.39, D 3.47, F 1.18, R 3.87, V 2.57, L 1.87, T 3.75
T10: I 3.06, M 1.4, S 2.34, E 1.17, N 2.35, P 1.07, H 1.11, F 2.42, R 1.6, D 1.31
I24: Y 1.22, G 2.85, T 1.1, C 1.34, S 1.23, H 1.63, M 1.53, D 1.54, V 1.78, A 1.39, N 2.39, L 1.82, F 2.58, K 1.75, P 2.14
E15: M 3.49, Q 2.31, L 2.57, N 2.34, P 2.02, S 2.81, T 1.67, K 1.27, F 2.92, G 1.82
E20: H 2.46, P 2.87, G 1.51, R 2.98, I 3.47, C 1.91, A 1.13, N 2.17, D 1.71, M 1.31, S 1.82, K 2.15
I2: G 2.95, F 2.68, K 3.31, L 2.76, M 2.86, Y 2.46, H 2.9, R 2.42, Q 1.98, D 3.9, W 2.38, E 5.34, T 2.75, A 1.96
Q4: N 1.58, V 3.01, E 1.4, R 2.35, W 2.88, A 2.19, H 1.2
E17: W 2.52, H 2.65, Y 3.21, A 1.23, N 2.31, F 2.7, I 1.76, P 4.07, D 1.19, C 2.77, T 2.81
V11: L 1.36, P 1.76, D 2.67, G 3.31, W 1.42, I 1.78, T 1, Y 2.04, H 2.25, S 2.61, Q 1.86, R 1.91, F 2.93, N 1.98, A 2.12, K 1.64
G7: D 1.87, L 1.82, C 1.72, R 1.73, A 2.35, K 2.06, Q 2.85, Y 3.6, S 1.46, P 1.58, T 1.45, E 1.74, I 2.58, H 2.14, N 1.05
W8: V 1.53, M 1.88, C 2.31, E 3.31, L 1.99, F 2.83, N 3.09, G 2.58, I 1.66, A 2.02, T 2.84, R 2.37, S 3.17, Q 3.93, P 2.97, D 2.56, Y 2.84, H 2.81, K 2.1
E19: R 1.93, S 2.39, P 1.82, C 3.36, D 1.19, L 2.41, T 2.34, Y 2.41, W 2.31, Q 3.34, H 2.29

Variants of: B2
Assay: as above
Conditions: c terminus: a fixed tail appended

Protein stability index of substitutions, site by site:
G2: A 2, T 1.83, N 1, C 1.68, E 1.97, S 1.6, L 1.57, I 2.15, H 2.07, R 2.04, K 2.32, Q 2.33, P 1.85, D 1.91, F 2.24
E1: T 1.39, Q 1.38, V 1, C 3.75, I 1.81, A 1.63, L 1.81, S 2.37, Y 1.97, D 2.06, M 2.45, W 2.07, K 1.42, G 2, P 1.71, R 2.57, N 1.96
